Assay results taken from paper PMC8790125.

Biological target: Rae1–Nup98_(GLEBS) complex, P78406
Test: ITC

In the case of KPLTKKNYSELDDEEPMELDYP (modifications not checked) [SARS-CoV-1 Orf6CTT (22-mer peptide, residues 42–63 of SARS-CoV-1 Orf6)], the Kd is reported as 278 nM and the stoichiometry N is reported as 1.
